This is an account of results in paper PMC4376794, “Production of Functional Human Vitamin A Transporter/RBP Receptor (STRA6) for Structure Determination” (PLoS ONE, 2015).

The target of assay [1] is T1, retinol binding protein (His-RBP) (UniProt P02753 19-201). As to the kind of experiment: SPR; holo-RBP (retinol-loaded, 6.9-219.3 uM) flowed over STRA6-GFP captured by its c-Myc tag on immobilised anti-c-Myc antibody (CM5, Biacore 3000); anti-HA antibody reference cell; room temperature; steady-state responses fitted to one site plus a linear low-affinity component; triplicate. The conditions noted are these: both partners purified. For orientation: Surface plasmon resonance follows binding to a sensor surface in real time, without labels.

Assay [2] addresses T1, retinol binding protein (His-RBP). As to the kind of experiment: SPR; apo-RBP (6.9-219.3 uM) flowed over STRA6-GFP captured by its c-Myc tag on immobilised anti-c-Myc antibody (CM5, Biacore 3000); anti-HA antibody reference cell; room temperature; steady-state responses fitted to one site plus a linear low-affinity component; triplicate. The conditions noted are these: both partners purified.

B1: STRA6-GFP-c-Myc-His6 (STRA6-HRV3C-eGFP-Myc-His6) (receptor, human)
chain: MSSQPAGNQTSPGATEDYSYGSWYIDEPQGGEELQPEGEVPSCHTSIPPGLYHACLASLSILVLLLLAMLVRRRQLWPDCVRGRPGLPSPVDFLAGDRPRAVPAAVFMVLLSSLCLLLPDEDALPFLTLASAPSQDGKTEAPRGAWKILGLFYYAALYYPLAACATAGHTAAHLLGSTLSWAHLGVQVWQRAECPQVPKIYKYYSLLASLPLLLGLGFLSLWYPVQLVRSFSRRTGAGSKGLQSSYSEEYLRNLLCRKKLGSSYHTSKHGFLSWARVCLRHCIYTPQPGFHLPLKLVLSATLTGTAIYQVALLLLVGVVPTIQKVRAGVTTDVSYLLAGFGIVLSEDKQEVVELVKHHLWALEVCYISALVLSCLLTFLVLMRSLVTHRTNLRALHRGAALDLSPLHRSPHPSRQAIFCWMSFSAYQTAFICLGLLVQQIIFFLGTTALAFLVLMPVLHGRNLLLFRSLESSWPFWLTLALAVILQNMAAHWVFLETHDGHPQLTNRRVLYAATFLLFPLNVLVGAMVATWRVLLSALYNAIHLGQMDLSLLPPRAATLDPGYYTYRNFLKIEVSQSHPAMTAFCSLLLQAQSLLPRTMAAPQDSLRPGEEDEGMQLLQTKDSMAKGARPGASRGRARWGLAYTLLHNPTLQVFRKTALLGANGAQP
notes: human STRA6, full length (transcript variant 2); In SPR it was held by its C-terminal c-Myc tag on an anti-c-Myc antibody; also called vitamin A transporter/RBP receptor; RBP receptor; source: Pichia pastoris KM71H (pPICZ-A); on whole cells, in broken cells, and purified (solubilised in C12E9, Ni-NTA with exchange to DDM, size exclusion); not shown: GFP (eGFP), C-terminal, kept; c-Myc, …
In the case of B1, the Kd was determined as 19.4 µM in assay [1] and 22.4 µM in assay [2].

For orientation: Kd means the equilibrium constant for the complex coming apart.
